# From US20190031754A1
# Target: hFc-hROR2-T245 (recombinant human ROR2 extracellular domain fused to human Fc) (human) (UniProt Q01974)
# Assay: SPR (Biacore X100), hFc-hROR2 captured by anti-human Fc on CM5, Fab as analyte, 1:1 Langmuir model
# hFc-hROR2-T245 (recombinant human ROR2 extracellular domain fused to human Fc) (human), sequence (Q01974 55-394 limits assumed, form in doubt): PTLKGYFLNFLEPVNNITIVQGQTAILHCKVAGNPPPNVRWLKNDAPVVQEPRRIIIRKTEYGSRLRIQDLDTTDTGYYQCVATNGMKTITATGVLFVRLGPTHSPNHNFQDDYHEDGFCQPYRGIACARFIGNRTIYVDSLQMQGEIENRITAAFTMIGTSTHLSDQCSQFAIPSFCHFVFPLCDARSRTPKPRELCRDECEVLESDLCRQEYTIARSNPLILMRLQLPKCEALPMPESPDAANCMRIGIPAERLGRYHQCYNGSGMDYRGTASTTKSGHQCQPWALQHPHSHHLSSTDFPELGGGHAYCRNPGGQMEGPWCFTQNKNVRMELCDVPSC
Binder,Kd,koff,kon
"chimeric rabbit/human Fab XBR2-327 (Fab, V domains shown) VH: QEQLKESGGGLFKPTDTLTLTCTVSGFSLSSGAISWVRQAPGNGLEYIGFVNSLGNTYYANWAKSRSAITRNTNENTVTLKMTSLAAADTATYFCAKDYGNWAFDPWGPGTLVTVSS VL: DPVLTQTPSSVSAAVGGTVAINCQASQSISSYLSWYQQKPGQPPKLLIYGASKLASGVPSRFSGSGSGTEYTLTISGVQREDAATYYCLGGYASASYRTAFGGGTKLEIK",57.2 nM,0.00546 s⁻¹,95600 M⁻¹ s⁻¹
"chimeric rabbit/human Fab ERR2-317 (Fab, V domains shown) VH: QSLEESGGRLVTPGTPLTLTCTASGFSLSSYDMIWVRQAPGKGLEYIGIINAGGNTYYASWAKGRFTISRTSTTVDLKMTSPTTEDTATYFCARGSSWTGDIWGPGTLVTVSS VL: DPVLTQTPSSTSAAVGGTVTIKCQASQSISSYLSWYQQKPGQPPKQLIYAASTLASGVPSRFKGSGSGTEYTLTISGVQREDAATYYCLGGYASASYQTAFGGGTKVEIK",,0.0132 s⁻¹,83500 M⁻¹ s⁻¹
"chimeric rabbit/human Fab XBR2-TOP9 (Fab, V domains shown) VH: QSVEESRGRLVTPGTPLTLICTVSGIDLSSYNIQWVRQAPGKGLEYIGYINTDGSAYYASWAKGRFTISKTSTTVDLKITSPTTEDTATYFCARGGYASGFNLWGPGTLVTISS VL: DVVMTQTPSSTSAAVGGTVTIKCQASQNIGPWLSWYQQKPGQPPKQLIYAASTLASGVPSRFKGSGSGTDYTLTISGVQREDAATYYCLGWHSWSDDGWAFGAGTNVEIK",,0.0467 s⁻¹,328000 M⁻¹ s⁻¹
"chimeric rabbit/human Fab XBR2-433 (Fab, V domains shown) VH: QSVKESEGGLFKPTDTLTLTCTVSGFSLSTYGVSWVRQAPGNGLEWIGAIGSSGSANYASWAKDRSTITRNTNLNTVTLKMTSLTAADTATYFCARDGYYSSGWGPYFNIWGPGTLVTISS VL: SFVLTQPASVQVNLGQTVSLTCTADTLSRSYASWYQQKPGQAPVLLIYRDTSRPSGVPDRFSGSSSGNTATLTISGAQAGDEADYYCATSGGSGSNPQYVFGGGTQLTVTG",2280 nM,0.108 s⁻¹,47300 M⁻¹ s⁻¹
"chimeric rabbit/human Fab ERR2-TOP35 (Fab, V domains shown) VH: QSVKESEGGLFKPMDTLTLTCTVSGFSLNTYGVSWVRQAPGNGLEWIGAVGSSGATNYASWAKSRSTITRNTNENTVTLKMTSLTAADTATYFCARDGYYSSGWGPYFSIWGPGTLVTVSS VL: SFVLTQPASVQVNLGQTVSLTCTAETLRSSYASWYQQKPGQAPVLLIYRDTSRPSGVPDRFSGSSSGNTATLTISGAQAGDEADYYCATSDGSGSRYYVFGGGTQLTVTG",43.3 nM,0.00851 s⁻¹,197000 M⁻¹ s⁻¹
"chimeric rabbit/human Fab XBR2-TOP72 (Fab, V domains shown) VH: QEQLEESGGRLVTPGTPLTLTCTVSGIDLSSNAMSWVRQAPGKGLEYVGFINGGGGVHYASWARGRFTISKTSTTVDLKITSPTTEDTATYFCARAGTTYYTSFNLWGPGTLVTISS VL: QFVLTQSPSASAALGSSAKLTCTLSSAHKTYTIAWYQQQQGEAPRLLMMLRTDGSYTKGTGVPDRFSGSSSGADRYLIISSVQADDAAGYYCGADYSGGYVFGGGTQLTVTG",4150 nM,0.154 s⁻¹,37000 M⁻¹ s⁻¹

# Results, then the binder that gave them:
Kd,koff,kon,Binder
,0.0178 s⁻¹,3.34e+06 M⁻¹ s⁻¹,"chimeric rabbit/human Fab ERR2-316 (Fab, V domains shown) VH: QKQLVESGGRLVTPGGSLTLTCTVSGFSLSKYGVSWVRQAPGSGLEYIGTIGGSGTSYYASWAKSRSTITRNTNLNTVTLKMTSLTAADTATYFCARYFGWNTGFDIWGPGTLVTISS VL: DPVMTQTPSSVSEPVGGTVTIKCQASQSISNALAWYQQKPGQPPKRLIYKASTPASGVPSRFKGSRSGTEYTLTISGVQREDAATYYCLGFSVVSNDGWAFGAGTNVEIK"
,0.00242 s⁻¹,29800 M⁻¹ s⁻¹,"chimeric rabbit/human Fab ERR2-TOP2 (Fab, V domains shown) VH: QSLEESGGRLVTPGTPLTLTCTVSGFSLSSYAISWVRQAPGKGLEWIGTIGTRGDTAYANWAKGRFTISKTSTTVTLKMTSPTTEDTATYFCARELVAGGGSDLWGPGTLVTVSS VL: DVVMTQTPSSVSAVVGGTVTIKCQASQSITSWLSWYQQKPGQPPKLLIYGASHLASGVPSRFKGSGYGTEFTLTISGIQREDAATYYCLGGYLSASYQTAFGGGTKVEIK"
52.5 nM,0.00544 s⁻¹,104000 M⁻¹ s⁻¹,"chimeric rabbit/human Fab ERR2-302 (Fab, V domains shown) VH: QKQLVESGGGLVKPGGSLTLTCTVSGFSLSSYAIGWVRQAPGNGLEWIGIINSYGSTYYASWAKSRSTITRNTNLNTVTLKMTSLTAADTATYFCARSPYGYVSAWGYHRLDLWGQGTLVTISS VL: SYELTQLPSVSVSLGQTARITCGGASIGSKVVHWYQQKPGLAPGLLIYDDDERPSGVPDRFSGSNSGDTATLTISGAQAGDEAEYYCQLWDGSDVVFGGGTQLTVTG"
,0.0173 s⁻¹,49800 M⁻¹ s⁻¹,"chimeric rabbit/human Fab XBR2-416 (Fab, V domains shown) VH: QEQLEESGGRLVTPGTPLTLTCTVSGFSLSSYWMSWVRQAPGKGLEWIGTITPGGNTDYATWAKARFTVSKTSTTVDLKITSPTTEDTATYFCARGIGGAADLWGPGTLVTISS VL: AQVLTQTPSSTSAAVGGTVTIKCQASQSISSSDLSWYQQKPGQPPKLLIYATSYLASGVPSRFKGSGSGTEYTLTISGVQREDAATYYCLGGYPNTSYRSAFGGGTKVEIK"
,0.000286 s⁻¹,27100 M⁻¹ s⁻¹,"chimeric rabbit/human Fab ERR2-308 (Fab, V domains shown) VH: QEQLEESGGRLVTPGTPLTLTCAVSGFSLSNYAMGWVRQAPGEGLEYIGWISAGGGAYYASWVNGRFTISKTSSTVDLKMTSLTAADTATYFCARGASNGCDLWGPGTLVTVSS VL: DPMLTQTPSSVSAVVGGTVTIKCQASQSITSWLSWYQQKPGQPPKLLIYGASHLASGVPSRFKGSGYGTEFTLTISGIQREDAATYYCLGGYSNSDIVFGGGTELEIL"
